Measurements: paper doi:10.1101/2024.06.25.600556 (bioRxiv, 2024)

Molecular target: the molecule itself
Experiment: crystal structure

B1: Streptococcus pneumoniae pyruvate kinase (enzyme)
chain: MNKRVKIVATLGPAVEIRGGKKFGEDGYWGEKLDVEASAKNIAKLIEAGANTFRFNFSHGDHQEQGERMATVKLAEKIAGKKVGFLLDTKGPEIRTELFEGEAKEYSYKTGEKIRVATKQGIKSTREVIALNVAGALDIYDDVEVGRQVLVDDGKLGLRVVAKDDATREFEVEVENDGIIAKQKGVNIPNTKIPFPALAERDNDDIRFGLEQGINFIAISFVRTAKDVNEVRAICEETGNGHVQLFAKIENQQGIDNLDEIIEAADGIMIARGDMGIEVPFEMVPVYQKMIIKKVNAAGKVVITATNMLETMTEKPRATRSEVSDVFNAVIDGTDATMLSGESANGKYPLESVTTMATIDKNAQALLNEYGRLDSDSFERNSKTEVMASAVKDATSSMDIKLVVTLTKTGHTARLISKYRPNADILALTFDELTERGLMLNWGVIPMLTDAPSSTDDMFEIAERKAVEAGLVESGDDIVIVAGVPVGEAVRTNTMRIRTVR
With B1 the “stoichiometry N” value was 4.
